These results are taken from patent US20040156851A1, “HMGB1 combination therapies” (Critical Therapeutics, Inc., priority 2002, published 2004).

In one series the test system is C3H/HeJ mice. The series is described as follows: Lethality and histology in C3H/HeJ mice. The series is classed as in vivo. Particulars: 8 hours after administration.
In series [1] the test system is RAW 264.7 cells. The series can be described thus: IL-6 release from RAW 264.7 cells (ELISA). The series is classed as cell-based, murine. As to conditions: B box 0-10 μg/ml, 8 hours (FIG. 2C). Here is the method: (§1) To further examine the effect of HMGB1 B box on cytokine production, varying amounts of HMGB1 B box were evaluated for the effects on TNF, IL-1B, and IL-6 production in murine macrophage-like RAW 264.7 cells. Conditioned media were harvested and measured for TNF, IL-1β and IL-6 levels. TNF levels were measured as described herein, and IL-1β and IL-6 levels were measured using the mouse IL-1β and IL-6 enzyme-linked immunosorbent assay (ELISA) kits (R&D System Inc., Minneapolis, Minn.) and N>5 for all experiments.

For series [2], the system named is RAW 264.7 cells. The series is described as follows: TNF release from RAW 264.7 cells stimulated with HMGB1, mutants or B box peptides (L929 cytotoxicity bioassay). The series is classed as cell-based, murine. Here is the method:
Murine macrophage-like RAW 264.7 cells (American Type Culture Collection, Rockville, Md.) were cultured in RPMI 1640 medium (Life Technologies, Grand Island, N.Y.) supplemented with 10% fetal bovine serum (Gemini, Catabasas, Calif.), penicillin and streptomycin (Life Technologies) and were used at 90% confluence in serum-free Opti-MEM I medium (Life Technologies, Grand Island, N.Y.). […] Polymyxin B was not used in experiments of synthetic peptide studies.
TNF release was measured by a standard murine fibroblast L929 (ATCC, American Type Culture Collection, Rockville, Md.) cytotoxicity bioassay (Bianchi et al., Journal of Experimental Medicine 183:927-936, 1996) with the minimum detectable concentration of 30 pg/ml. Recombinant mouse TNF was obtained from R&D system Inc., (Minneapolis, Minn.). Murine fibroblast L929 cells (ATCC) were cultured in DMEM (Life Technologies, Grand Island, N.Y.) supplemented with 10% fetal bovine serum (Gemini, Catabasas, Calif.), penicillin (50 units/ml) and streptomycin (50 μg/ml) (Life Technologies) in a humidified incubator with 5% CO2.
The effect of the mutants on TNF release from Murine macrophage-like RAW 264.7 cells (ATCC) was carried out as follows. RAW 264.7 cells were cultured in RPMI 1640 medium (Life Technologies, Grand Island, N.Y.) supplemented with 10% fetal bovine serum (Gemini, Catabasas, Calif.), penicillin and streptomycin (Life Technologies). Polymyxin (Sigma, St. Louis, Mo.) was added at 100 units/ml to suppress the activity of any contaminating LPS. Cells were incubated with 1 μg/ml of full length (wild-type) HMGB1 and each HMGB1 mutant protein in Opti-MEM I medium for 8 hours. Conditioned supernatants (containing TNF which had been released from the cells) were collected and TNF released from the cells was measured by a standard murine fibroblast L929 (ATCC) cytotoxicity bioassay (Bianchi et al., supra) with the minimum detectable concentration of 30 pg/ml. Recombinant mouse TNF was obtained from R & D Systems Inc., (Minneapolis, Minn.) and used as control in these experiments. Data in FIG. 1 are all presented as mean±SEM unless otherwise indicated. (N=6−10).
as §1
The kinetics of B box-induced TNF release were also examined. TNF release and TNF mRNA expression were measured in RAW 264.7 cells induced by B box polypeptide or GST tag polypeptide only (used as a control (vector)) (10 μg/ml) for 0 to 48 hours. Supernatants were analyzed for TNF protein levels by an L929 cytotoxicity assay (N=3-5) as described herein. For mRNA measurement, cells were plated in 100 mm plates and treated in Opti-MEM I medium containing B box polypeptide or the vector alone for 0, 4, 8, or 24 hours, as indicated in FIG. 2D. The vector only sample was assayed at the 4 hour time point. Cells were scraped off the plate and total RNA was isolated using the RNAzol B method in accordance with the manufacturer's instructions (Tel-Test “B”, Inc., Friendswood, Tex.). TNF (287 bp) was measured by RNase protection assay (Ambion, Austin, Tex.). Equal loading and the integrity of RNA was verified by ethidium bromide staining of the RNA sample on an agarose-formaldehyde gel. […] TNF mRNA expression was maximal at 4 hours and decreased at 8 and 24 hours. […] A similar study was carried out measuring TNF protein released from RAW 264.7 cells 0, 4, 8, 24, 32 or 48 hours after administration of B box or vector only (GST tag), using the L929 cytotoxicity assay described herein. […]

B1: B box: Human HMGB1 mutant containing only the B box, SEQ ID NO:20 (protein, listed as Homo sapiens)
chain: FKDPNAPKRLPSAFFLFCSEYRPKIKGEHPGLSIGDVAKKLGEMWNNTAADDKQPYEKKAAKLKEKYEKDIAAY
B1: in the series with C3H/HeJ mice, the histology of liver result is “mild acute inflammatory responses, with some hepatocyte dropout and apoptosis”. Further, the “IL-6 release, dose response” value in the series with RAW 264.7 cells [1] is “IL-6 release from RAW 264.7 cells increased with increased amounts of B box”. Besides, the “TNF protein release over time” value in the series on RAW 264.7 cells [2] (10 μg/ml, 0-48 hours, compared to medium only (FIG. 2E)) is recorded as “stimulated TNF protein expression”. In addition, the “TNF release, dose response” value in the series on RAW 264.7 cells [2] (B box 0-10 μg/ml, 8 hours (FIG. 2A)) was “increased with increased amounts of B box”.
